Source: the nanobody polyreactivity screen of Harvey et al. (2022)

Assay: yeast display, Sf9 membrane polyspecificity reagent, FACS + sequencing; frameworks hold sequencing errors
Procedure, shortened: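 Using colony PCR, genes from sorted yeast display clones were amplified, then sequenced on MiSeq at 2 × 250 and filtered by CDR length. The clones had been stained with 10% biotinylated, detergent-solubilized Sf9 membrane reagent for 1 hour at 4 °C and sorted by FACS into low and high (top ~1%) gates on anti-HA and streptavidin fluorescence. Polyreactivity labels come from the gate of origin.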

Sequence: QVQLVESGGGLVQAGGSLRLSCAASGIIFYRYAMGWYRQAPGKERELVSAITWSGVSTSYADSVKGRFTISRDNAKNTVYLQMNSLKPEDTAVYYCAATNYGTFWGGQSERYDYWGQGTQVTVSS
- polyreactivity (PSR sort gate): low polyreactivity

Sequence: QVQLVESGGGLVQAGGPLRVSCAASGIIFDYNAMGWYRQAPGKERELVAAITSTDNTNYADSVKGRFTISRDNAKNTVYLQKNCLKPEDTAVYYCAACSYSRYHYSLYFDFDYWGQGTQVTVSS
- polyreactivity (PSR sort gate): low polyreactivity

Sequence: QVQLVESGGGLVQAGGSLRLSCAASGFTFRGNAMGWYRQAPGKERELVAAITSSDDSTYYADSVKGRFTISRDYAKNTVYLQMNSLKPEDTAVYYCAAEGVHYAGDYGTGYDYWGQGTQVTVSS
- polyreactivity (PSR sort gate): low polyreactivity

Sequence: QVQLVESGGGLVQAGGSLLISCAASGSTFLLNAMGWYRQAPGKERELVAAITGSGTTTYYADSVKGRFTISRDNAKNTVFLHMNSLKPEDTAVYYCAAYAYYHTGDDYWGQGTQVTVSS
- polyreactivity (PSR sort gate): high polyreactivity

Sequence: QVQLVESGGGLVQAGGSLRLSCAASGRTFRGYAMGWYRQAPGKERELVAAINFSAGITYYADSVKGRFTISRDNAKNTVYLQMNSLKPEDTAVYYCAAEPEWWWRGYGYWGQGTLVTVSS
- polyreactivity (PSR sort gate): low polyreactivity

Sequence: QVQLVESGGGLVQAGGSLRLSCAASGFTFSYYAMGWSRPEPGKERELVAAISSSASRTYYAESVKGRFTISRDNAKNTVYFQMNSLKPEDTAVYYCAARYSESRTRHLDYWGQGTQVTVSS
- polyreactivity (PSR sort gate): high polyreactivity

Sequence: QVQLQESGDGLVQAVGSLRLSCAASGNISGDYYMGWYRQAPGKERELVAGIDAFGSSTNYADCVKGRFTISRDNAKNTVYLQMNRLKPEDTAVYYCAARPDGDRLFSYWGQGTQVTVSS
- polyreactivity (PSR sort gate): low polyreactivity

Sequence: QVQLVGSGGGLVQAGGSLRLSCAASGRIFRYNAMGWYRQAPGKEREFVATISWRGGNTYYADSVKGRFTISRDNAKNTVYLQMNSLKPEDTAVYYCATRRLYSKSWYYYWGQGTQVTVSS
- polyreactivity (PSR sort gate): high polyreactivity

Sequence: QVQLVESGGGLVQAGGSLRLSCAASGSTLARYAMGWYRQAPGKERELVAAISSDGRTYYADSVKGRYTISRDNAKNTVYLQIYSLKPEDTAVYYCATLRPYAYPQYDSWGQGTQVTVSS
- polyreactivity (PSR sort gate): high polyreactivity

Sequence: QVQLVESGGGLVQAGGSLRLSCAASGRTFPVNGMGWYRQAPGKERELVAAITGGGSTNYADSVKGRFTITRDNAKNTVYLQMNSLKPEDTAVYYCAAGSYSRYLYSLYFDFDYWGQGTQVTVSS
- polyreactivity (PSR sort gate): low polyreactivity

Sequence: QVQLVESGGGLVQAGGSLRLSCAASGSTLRRYAMGWYRQAPGKERELVAAISGTGSRTYYADSVNGRFTISRDNAKNTDYLQMNSLKPEDTAVYYCNASQYRLTENDYWGQGTQVNVSS
- polyreactivity (PSR sort gate): high polyreactivity

Sequence: QVQLVESGGGLVQAGGSLRLSCAASGNTLIQYAMGWYRQAPGKERELVAGISGSDDSTYYADSVKGRFTISRDNAKNTVYLQMNSLKPEDTAVYYCAAQVDRWKGREHDYWGQGTQVTVSS
- polyreactivity (PSR sort gate): low polyreactivity

Sequence: QVQLVESGGGLVQAGGSLRVSCAASGFIFTGYTMGWYRQAPGKERELLAAVSYRGGSTYYADSVKGRFTISRDNAKNTVYLQMNSLKPEDTAVNYCNAVWSNFRLGYDYWGQGTQVTVSS
- polyreactivity (PSR sort gate): high polyreactivity

Sequence: QVQLVESGGGLVQAGGSLRLSCAASGRTFPFYAMGWYRQAPGKERELVADITSSGGSTYYADSVKGRFTISRDNAKNTVYLQINSLKPEDTAVYYCNKRPWTRFDSGQGTQVTVSS
- polyreactivity (PSR sort gate): low polyreactivity

Sequence: QVQLVESGGGIVQAGGSLRLSCAASGSIFTRYAMGWYRPAPGKERELVAAITKSGSRTYYADSVKGRFTISRDNAKNTVYLQLNCLIAEDTAVFYCATLQGDSSSQYDYWGQGTQVTVSS
- polyreactivity (PSR sort gate): high polyreactivity

Sequence: QVQLVESGGGLVQAGGSLRLSCAASGSIFAINTMGWYRQAPGKERELVAAITSGGSTYYSDSVKGRFTISRDNAKNTVYLQMNSLKPEDTAVYYCAATPIGQHFTVDYWGQGTQVTVSS
- polyreactivity (PSR sort gate): low polyreactivity

Sequence: QVQLVESGGGLVQAGGSLRLSCAASGFILDYNAMGWYRQAPGKERELVATITGRGDRTYYADSVKGRFTISRDNAKNTVYLQMNSLKPEDTAVYYCAAGFDGSRHPGFDSWGQGTQVTVSS
- polyreactivity (PSR sort gate): low polyreactivity

Sequence: QVQLVESGGCLLQAGATLRLSCASSGSIFNGKAMGWYRQAPGKERELVAANTWSGGSTYYADSVKGRFTISRDNAKNSVYLQMNSLKPEDTAVYYCNTYTYRGYDYWGQGTQVTVSS
- polyreactivity (PSR sort gate): high polyreactivity

Sequence: QVQLVESGGGLVQAGGSLRLSCAASGSTFYRNVMGWYRQAPGKERELVAAISSGGSTYYADSVIGRFTISRDNAKNTVYLQLNSLKPEDTAVYYCARRLTREYDYWGQGTQVTVSS
- polyreactivity (PSR sort gate): low polyreactivity

Sequence: QVQLVESGGGLVQAGGSLRLSCAASGRTFPGYAMGWYRQAPGKERELVAAISNSGGRTYYADSVKGRFTISRDNAKNTVYLQMNSLKPEDTAVYYCNALGRVRYSPRYGYDYWGQGTQVTVSS
- polyreactivity (PSR sort gate): high polyreactivity

Sequence: QVQLVESGGGLVQAGGSLRLSCAASGIFPWFAMGWYRQAPGKERELVAVITGGDSTNYADSVKGRFTISRDNAKNTVYLQMNSLKPEDTAVYYCAARNTGPVQYYYWGQGTQVTVSS
- polyreactivity (PSR sort gate): low polyreactivity

Sequence: QVQLVESGGGLVQAGGSLRLSCAASGRIFRRYVMGWYRQAPGKERELVARIRIRDSNTYYADSVKGRFTISRDNAKNTVYLQMNSLKPEDTAVYYCAVVANYVYSKYDYWGQGTQVTVSS
- polyreactivity (PSR sort gate): low polyreactivity

Sequence: QVQLVESGGGLVQAGGSLRLSCAASGSIFGSYAMGWYRQAPGKERELVAAITSAGSTNYADSVKGRFTISRDNAKNTVYLQMNSLKPEDTAVYYCAVRPGFGRSLWYGYWGQGTQVTVSS
- polyreactivity (PSR sort gate): low polyreactivity

Sequence: QVQLVESGGGLVQAGGSLRLSCAASGSTFKYNAMGWYRQAPGKEREFVAAISYSGGSTYYADSVKGRFTISRDYAKNTVYLQMNSLKPEDTAVYYCAAYPWERYTWRYVYRGHDYWGQGTQVTVSS
- polyreactivity (PSR sort gate): low polyreactivity

Sequence: QVQLHESGGGLVQAGGSLRLSCAASGTISVTYNMAWYRQAPGKERECVAGNSTGATTNYADSVKGRFTIRRDNAKNTVYLQMNSLKPEDTAVYYCAAHIYRQDHFYYWGQGTQVTVSS
- polyreactivity (PSR sort gate): low polyreactivity

Sequence: QVQLVESGGGLVQAGGSLRLSCAASGIIFPRYAMGWYRQAPGKERELVAAITKRGGSTYYADSVKGRFTISRDNAKNTVYLQMNSLKPEDTAVYYCAADDNSGYYYWGQGTQVTVSS
- polyreactivity (PSR sort gate): high polyreactivity

Sequence: QVQLVESGGGLVQAGGSLRLICAASGRTFDGYVMGLYRQAPGKERELVASIRGTGSTYYADSVKGRFTISRENAKNTVYLQMNSLKPEDTAVYYCAARPGYAYDWGQGTQVTVSS
- polyreactivity (PSR sort gate): high polyreactivity

Sequence: QVQLVESGGGLVQAGGSLRLSCAASGYIFHLYGMGWYRQAPGKERELVARISYRGGSTYYADSVKGRFTISRDNAKNTVYLQMNSLKPEDTAVYYCAKDYYKHYYWGQGTQVTVSS
- polyreactivity (PSR sort gate): high polyreactivity

Sequence: QVQLVESGGGLVQAGGSLRLSCAASGRIFHSYAMGWYRQAPGKERELVAAISSGGNTYYADSVKGRFTISRDNAKNTVYLQMNSLKPEDTAVYDCARDWDFLYDGFHSDSYEYWGQGTQVTVSS
- polyreactivity (PSR sort gate): low polyreactivity

Sequence: QVQLVESGGGLVQAGGSLRLSCAASGGIFRPYAMGWYRQSPGKEREMVAAITYNGGSTYYADSVKGRFTISRDNAKNTVYLQMNSLKPEDTGVYYCAARARSSRTYHDDYWGQGTQVTVSS
- polyreactivity (PSR sort gate): high polyreactivity

Sequence: QVHLVESGGGLVQAGGSLRLSCAASGFTFRYNAMGWYRQAPGKERELVAAISWSGGSTYYADSVKGRFTISRDNAKNTVYLQMNSLKPEDTAVYYCNVGWGRVYKSRYDYWGQGTQVTVSS
- polyreactivity (PSR sort gate): high polyreactivity

Sequence: QVQLVASGGGLVQAGGSLRLSCAASGSIFIYYTMGWYRQAPGKERELVAAINRGGSTYYADSVKGRFTISRDNAKNTVYLQMNSLKPEDTAVYYCNARYYRLPYWDAVKYDYWGQGTQVTVSS
- polyreactivity (PSR sort gate): low polyreactivity

Sequence: QVQLVESGGGLVQAGGRLRLSCAASGRIFAEYAMGWYRQAPGKVRELVAAISRRGGRPYYADSVKGRFTISRDNAKKPVYLQMNSLTPDDTAVYYCAADHGDPGGYDYWGQGTQVTVSS
- polyreactivity (PSR sort gate): high polyreactivity

Sequence: QDQLVESGGGLVQAGGSLRLRCADYGSTFYYYAMGWYRQAPGKERELVAVITRGGGTYYADSVKGRFTISRDNAKNTVYLQMNSLKPEDTAVYYCNARQRSSTRKGYNYWGQGTEVTVSS
- polyreactivity (PSR sort gate): high polyreactivity

Sequence: QVQLVESVGGLVQAGGSLRLSCAASGSILWLYAMGWYRQAPGKERELVAAISGSGRTNYADSEKGLFTISRDNAKNTVYLQMNSQKPEDTAVYYCARVHGTSESKYYYWGQGTQVTVSL
- polyreactivity (PSR sort gate): low polyreactivity

Sequence: QVQLEESGGGLVQAGGSLRLSCAASGRTFYRYAMGWYRQAPGKERELVAAITWSGGSTYYADSVKGRFTTSRDNAKNTVYLQMNSLKPEDTAVYYCARRLYPYRPTAYDYWGQGTQVTVSS
- polyreactivity (PSR sort gate): low polyreactivity

Sequence: QVQLVESGGGLVQAGGSLRLSCAASGLTFRYYAMGWYRQAPGKERELVAAITRRGSTYYADSVKGRFTISRDNAKNTVYLQMISLKPEDTAVYYCATVTGFHSSPLRDLDYWGQGTQVTVSS
- polyreactivity (PSR sort gate): high polyreactivity

Sequence: QVQLVESGGGLVQAGGSLRLSCAASGRIFQYNAMGWYRQAPGKERELVAAIRRGGGSTYYADSVKGRFTISRDNAKNTVYLQMNSLKPEDTAVYYCAADASSQIWYYPRDDYWGQGTQVTVSS
- polyreactivity (PSR sort gate): low polyreactivity

Sequence: QVQLVESWGGLVQAGGSLRLSCAASGSTFVKNAMGWYRQAPGKERELVAAISYRGGRTYYADSVKGRYTISRDNAKNTVYLQMNSLKPEDTAVYYCNARYRTPSFIRMGYWGQGTQVTVSS
- polyreactivity (PSR sort gate): high polyreactivity

Sequence: QVQLVESGGGLVQAGGSLRISCAASGSIFRSNAMGWYRQAPGKEREMVAAISSSGGSTYYADSVKGRFTISRDNAKNTVYFQMNSLKPEDTAVYYCAAEVLSSDLFRPDSIVDYWGQGTQVNVSS
- polyreactivity (PSR sort gate): low polyreactivity

Sequence: QVQLVESGGGLVQAGGSLRLSCAASGSTFTVNAMGWYRQAPGKERELVAAINGSGDITYYADSVTGRFTISRDNAKNTVYLQMNSLKPEDTAVYYCAADQGVPSTYDYWGQGTQVTVSS
- polyreactivity (PSR sort gate): low polyreactivity

Sequence: QVQLVESGGGLVQAGGSLRLSCAASGIIFYAYAMGWYRQAPGKEREFVAAINNSGGRTYYADSVKGRFTISRDNAKNTVYLQMNSLKPEDTAVYYCAVYSYYRRTYRREMDYWGQGTQVTVSS
- polyreactivity (PSR sort gate): high polyreactivity

Sequence: QVQLVESGGGLVQAGGSLRLICAASGFIFTANVMGWYRQAPGKERELVAAISRSGGSTYYADSVKGRFTISRDNAKNTVYLQMNSLKPEDTAVYYCAKLRRDARYDYWGQGTQVTVSS
- polyreactivity (PSR sort gate): high polyreactivity
